Results taken from PMC7595197.

Biological target: AtaT (G108D) (enterohemorrhagic E. coli O157:H7)
Experiment: crystal structure

AtaT (G108D) (enzyme)
stoichiometry N: 2
